Patent publication US10590192B2, “Midkine antibody” (Cellmid Limited, priority 2014, dated 2020)
Changes are numbered by the printed parent chain. Entries after “also recorded” stand apart in the source; their conditions may differ.

B1: IP14-H5L8: humanised IP14 antibody: VH SEQ ID NO: 6, VL SEQ ID NO: 17 (antibody, V domains shown)
VH: QVQLVQSGGGLVQPGGSLRLSCAASGQSFSSYWMNWVRQAPGQGLEWIGMIHPSDSETILNQKFKDKATLTVDISKNTAYLQMNSLRAEDTAVYYCSSWSAKRGDFWGQGTLVTVSS
VL: DIVLTQSPATLSLSPGERATLSCRASESISNNLHWYQQKPHQAPRLLIYYASQSISGVPARFSGSGSGTDFTLTISSVEPEDFAVYYCQQSNSWPLTFGQGTKVEIKR
modifications: Variable region heavy chain humanised variant 5 (VH5); Variable region light chain humanised variant 8 (VL8)
B2: IP14-H6L3: humanised IP14 antibody: VH SEQ ID NO: 7, VL SEQ ID NO: 12 (antibody, V domains shown)
VH: B1 VH with Q13K, G16H, Q43K, T71S, S75A, T78S
VL: B1 VL with H41G, V58I, S67P, V78L, Q100G, V104L
modifications: Variable region heavy chain humanised variant 6 (VH6); Variable region light chain humanised variant 3 (VL3)
B3: IP14-H6L8: humanised IP14 antibody: VH SEQ ID NO: 7, VL SEQ ID NO: 17 (antibody, V domains shown)
VH: B1 VH with Q13K, G16H, Q43K, T71S, S75A, T78S
VL: B1 VL
modifications: Variable region heavy chain humanised variant 6 (VH6); Variable region light chain humanised variant 8 (VL8)

Target: T1, recombinant human MK (huMK) (Homo sapiens, UniProt P21741)
T1 sequence (P21741 21-143): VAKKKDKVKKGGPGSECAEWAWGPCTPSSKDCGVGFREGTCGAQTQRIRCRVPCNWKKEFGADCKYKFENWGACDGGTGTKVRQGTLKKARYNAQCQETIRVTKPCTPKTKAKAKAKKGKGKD
Experiment: ELISA binding of humanised anti-MK antibodies to huMK
Details: comparison in words
Protocol: (§1) The binding specificity and affinity of the humanised anti-MK antibodies to recombinant human MK (huMK) and murine MK (muMK) was assessed by ELISA. ELISA plates (Nunc Immuno MaxiSorp 96 well flat-bottom were coated with 100 uL of 2 ug/mL of either huMK or muMK in 2% BSA/PBS (overnight at room temperature). After washing, blocking (1 h at 37° C.), and washing again, the humanised anti-MK and chimeric antibodies described in Example 1 were analysed for binding to huMK or muMK at concentrations ranging between 3 μg/ml and 0.00004 μg/ml in 2% BSA/PBS (1 h at 37° C.). After washing, the binding of antibody was detected with goat anti-mouse IgG (Fab specific)-HRP conjugate (Sigma, Cat. No. A9917) and SigmaFast OPD substrate (Sigma, Cat. No. P9187). The reaction was stopped with 3 M HCl, absorbance read at 490 nm on a Dynex Technologies MRX TC II plate reader and the binding curves plotted. Binding affinity data for the humanised anti-MK antibodies to huMK and muMK are presented in Table 6 and Table 7 respectively, and in FIG. 3.
(§2) KD values for hIP14-H5L8, hIP14-H6L3 and hIP14-H6L8 was then compared with the KD values obtained for the corresponding murine IP14 precursor antibody and the chimeric antibody using the methods described in Example 2. […] Based on this finding, these candidate antibodies were produced to 100 mg scale to enable further testing in functional assays to determine biological function.

Molecule	binding affinity for huMK compared with murine IP14 precursor antibody
B1	better binding affinity
B2	better binding affinity
B3	better binding affinity

Target: T2, murine MK (muMK) (Mus musculus, UniProt P12025)
T2 sequence (P12025 23-140): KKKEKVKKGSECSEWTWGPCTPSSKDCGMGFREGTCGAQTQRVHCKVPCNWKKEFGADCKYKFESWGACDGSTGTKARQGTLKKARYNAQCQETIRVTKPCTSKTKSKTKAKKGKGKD
Experiment: ELISA binding of humanised anti-MK antibodies to muMK
Details: comparison in words
Protocol: as §1, §2

Molecule	binding affinity for muMK compared with murine IP14 precursor antibody and chimeric antibody
B1	better binding affinity
B2	better binding affinity
B3	better binding affinity

Target: T3, human midkine protein (Homo sapiens, UniProt P21741)
T3 construct: human MK cDNAs comprising the MK coding region flanked by EcoRI restriction sites; made in house; host or cells: Pichia pastoris GS115 (clone T3L-50-4P), secreted into culture supernatant
T3 sequence (P21741 21-143): T1 sequence (P21741 21-143)
Experiment: UMR106 cell migration inhibition assay (modified Boyden chamber)
Type: cell-based, rat
Details: comparison in words
Protocol: Cell migration assays were performed for each of the preferred candidate humanised IP14 antibodies and the murine IP14 parent antibody to determine the ability of these antibodies to inhibit migration of UMR106 cells to midkine.
The UMR-106 rat osteosarcoma cell line was originally obtained from the American Type Culture Collection, PO Box 1549, Manassas, Va., USA as a frozen stock (catalog no. CRL-1661; batch no. 58494148).
The cells were maintained in: DMEM+Glutamax (DMEM, catalog no. 10569-010 500 mL, lot. no. 778325, Invitrogen/Gibco) supplemented with the following items: Penicillin (10,000 U/mL stock concentration)—Streptomycin (10,000 μg/mL stock concentration) (catalog no. 15140-122 100 mL, lot no. 730849, Invitrogen/Gibco) at a rate of 1 mL/200 mL of DMEM 10% fetal bovine serum (FBS, catalog no. 100099-141, lot no. 6955347Y, Invitrogen/Gibco). The DEM+Glutamax media containing 50 U/mL penicillin, 50 μg/mL streptomycin and 10% FBS is identified as Complete media in this report. The 10% FBS was replaced by 0.3% (w/v) bovine serum albumin (BSA) for the cell migration assays. The BSA was supplied by Sigma-Aldrich, catalog no. A-3192, lot no. 31K1264 and was formulated as a 15% (w/v) stock solution in D-PBS which was sterilized by passage through a 0.22 micron filter and stored at −20° C. prior to use. The cell cultures were maintained in T75 tissue culture-treated flasks in a humidified incubator at approximately 37° C. and 5% carbon dioxide. Cells were sub-cultured twice weekly at a sub-culture ratio ranging from approximately 1:8 to 1:20. Cells were dissociated from the flask by rinsing once with Dulbecco's phosphate buffered saline (DPBS, catalog no. 14190, lot no. 783715, Invitrogen/Gibco) and then incubated with 0.25% Trypsin-EDTA solution (Invitrogen/Gibco) at 37° C. for 2-5 minutes. The cells were then removed by addition of approximately 10 mL of Complete media. The experiments were completed using UMR-106 cells at ˜50 to 75% confluency on the day prior to assay. These cultures were washed once with DMEM and cultured overnight in DMEM containing 0.5% FBS. […]

Molecule	inhibition of UMR-106 cell migration compared with murine IP14 precursor antibody
B1	more effective; also recorded: greater efficacy
B2	more effective; also recorded: greater efficacy
B3	more effective; also recorded: greater efficacy
